In the Human Domainome abundance scans (Beltran et al. 2025):
± gives the uncertainty stated by the source.

B1: Tesmin, residues 368 to 403; numbered along this chain, Q9Y4I5 (parent)
chain: KGCNCRRSGCLKNYCECYEAQIMCSSICKCIGCKNY

Variants of: B1
Test: abundance fitness (aPCA) (normalised: wild type 0, dead -1); higher = more abundant; growth selection in yeast, the domain comes from the species named
Conditions: Homo sapiens
Work on KGCNCRRSGCLKNYCECYEAQIMCSSICKCIGCKNP [Y36P] yielded an abundance fitness of 0.31 ± 0.095. Variant KGCNCRRSGCLKNYCECYEAQIMCSSICKCIGCKNA [Y36A] has an abundance fitness of 0.209 ± 0.11. Work on KGCNCRRSGCLKNYCECYEAQIMCSSICKCIGCKNN [Y36N] yielded an abundance fitness of 0.02 ± 0.14. With KGCNCRRSGCLKNYCECYEAQIMCSSICKCIGCKND [Y36D] the abundance fitness was 0.145 ± 0.13. Work on KGCNCRRSGCLKNYCECYEAQIMCSSICKCIGCKNV [Y36V] yielded an abundance fitness of 0.286 ± 0.1. KGCNCRRSGCLKNYCECYEAQIMCSSICKCIGCKNG [Y36G] showed an abundance fitness of 0.193 ± 0.1. Variant KGCNCRRSGCLKNYCECYEAQIMCSSICKCIGCKNI [Y36I] has an abundance fitness of 0.371 ± 0.13. In the case of KGCNCRRSGCLKNYCECYEAQIMCSSICKCIGCKNL [Y36L], the abundance fitness is reported as -0.05 ± 0.1. KGCNCRRSGCLKNYCECYEAQIMCSSICKCIGCKNR [Y36R] showed an abundance fitness of 0.305 ± 0.086. Variant KGCNCRRSGCLKNYCECYEAQIMCSSICKCIGCKNK [Y36K] has an abundance fitness of -0.317 ± 0.26. For KGCNCRRSGCLKNYCECYEAQIMCSSICKCIGCKNT [Y36T], the abundance fitness was 0.15 ± 0.18. KGCNCRRSGCLKNYCECYEAQIMCSSICKCIGCKNW [Y36W] gave an abundance fitness of 0.02 ± 0.11. For KGCNCRRSGCLKNYCECYEAQIMCSSICKCIGCKNS [Y36S], the abundance fitness was -0.016 ± 0.14. With KGCNCRRSGCLKNYCECYEAQIMCSSICKCIGPKNY [C33P] the abundance fitness was -0.014 ± 0.084. KGCNCRRSGCLKNYCECYEAQIMCSSICKCIGHKNY [C33H] showed an abundance fitness of -0.106 ± 0.17. Work on KGCNCRRSGCLKNYCECYEAQIMCSSICKCIGRKNY [C33R] yielded an abundance fitness of -0.245 ± 0.069. For KGCNCRRSGCLKNYCECYEAQIMCSSICKCIGEKNY [C33E], the abundance fitness was 0.109 ± 0.076. KGCNCRRSGCLKNYCECYEAQIMCSSICKCIGWKNY [C33W] showed an abundance fitness of -0.449 ± 0.086. KGCNCRRSGCLKNYCECYEAQIMCSSICKCIGLKNY [C33L] gave an abundance fitness of -0.232 ± 0.083. KGCNCRRSGCLKNYCECYEAQIMCSSICKCIGSKNY [C33S] gave an abundance fitness of -0.121 ± 0.081. KGCNCRRSGCLKNYCECYEAQIMCSSICKCIGKKNY [C33K] showed an abundance fitness of -0.123 ± 0.093. For KGCNCRRSGCLKNYCECYEAQIMCSSICKCIGGKNY [C33G], the abundance fitness was -0.025 ± 0.064. Work on KGCNCRRSGCLKNYCECYEAQIMCSSICKCIGDKNY [C33D] yielded an abundance fitness of -0.064 ± 0.094. KGCNCRRSGCLKNYCECYEAQIMCSSICKCIGQKNY [C33Q] showed an abundance fitness of -0.362 ± 0.2. Variant KGCNCRRSGCLKNYCECYEAQIMCSSICKCIGTKNY [C33T] has an abundance fitness of -0.14 ± 0.1. KGCNCRRSGCLKNYCECYEAQIMCSSICKCIGAKNY [C33A] showed an abundance fitness of -0.011 ± 0.076. KGCNCRRSGCLKNYCECYEAQIMCSSICKCIGVKNY [C33V] showed an abundance fitness of -0.055 ± 0.08. KGCNCRRSGCLKNYCECYEAQIMCSSICKCIGMKNY [C33M] gave an abundance fitness of -0.147 ± 0.16. KGCNCRRSGCLKNYCECYEAQIMCSSICKCIGCKVY [N35V] gave an abundance fitness of -0.362 ± 0.09. In the case of KGCNCRRSGCLKNYCECYEAQIMCSSICKCIGCKFY [N35F], the abundance fitness is reported as -0.614 ± 0.34. For KGCNCRRSGCLKNYCECYEAQIMCSSICKCIGCKEY [N35E], the abundance fitness was 0.11 ± 0.09. For KGCNCRRSGCLKNYCECYEAQIMCSSICKCIGCKRY [N35R], the abundance fitness was -0.019 ± 0.077. KGCNCRRSGCLKNYCECYEAQIMCSSICKCIGCKAY [N35A] gave an abundance fitness of 0.141 ± 0.079. Variant KGCNCRRSGCLKNYCECYEAQIMCSSICKCIGCKWY [N35W] has an abundance fitness of -0.233 ± 0.1. Variant KGCNCRRSGCLKNYCECYEAQIMCSSICKCIGCKCY [N35C] has an abundance fitness of -0.384 ± 0.3. Variant KGCNCRRSGCLKNYCECYEAQIMCSSICKCIGCKKY [N35K] has an abundance fitness of -0.44 ± 0.16. KGCNCRRSGCLKNYCECYEAQIMCSSICKCIGCKGY [N35G] showed an abundance fitness of 0.211 ± 0.074. KGCNCRRSGCLKNYCECYEAQIMCSSICKCIGCKTY [N35T] gave an abundance fitness of -0.167 ± 0.11. With KGCNCRRSGCLKNYCECYEAQIMCSSICKCIGCKPY [N35P] the abundance fitness was -0.055 ± 0.094. KGCNCRRSGCLKNYCECYEAQIMCSSICKCIGCKSY [N35S] gave an abundance fitness of -0.023 ± 0.093. For KGCNCRRSGCLKNYCECYEAQIMCSSICKCIGCKQY [N35Q], the abundance fitness was 0.114 ± 0.11. Variant KGCNCRRSGCLKNYCECYEAQIMCSSICKCIGCKYY [N35Y] has an abundance fitness of -0.64 ± 0.36. With KGCNCRRSGCLKNYCECYEAQIMCSSICKCIGCKLY [N35L] the abundance fitness was -0.861 ± 0.22. KGCNCRRSGCLKNYCECYEAQIMCSSICKCIGCKDY [N35D] showed an abundance fitness of 0.18 ± 0.12. For KGCNCRRSGCLKNYCECYEAQIMCSSICKCIGCVNY [K34V], the abundance fitness was 0.152 ± 0.078. Work on KGCNCRRSGCLKNYCECYEAQIMCSSICKCIGCWNY [K34W] yielded an abundance fitness of 0.003 ± 0.089. Work on KGCNCRRSGCLKNYCECYEAQIMCSSICKCIGCSNY [K34S] yielded an abundance fitness of 0.073 ± 0.12. With KGCNCRRSGCLKNYCECYEAQIMCSSICKCIGCINY [K34I] the abundance fitness was -0.503 ± 0.41. With KGCNCRRSGCLKNYCECYEAQIMCSSICKCIGCDNY [K34D] the abundance fitness was 0.295 ± 0.15. For KGCNCRRSGCLKNYCECYEAQIMCSSICKCIGCPNY [K34P], the abundance fitness was 0.161 ± 0.21. Work on KGCNCRRSGCLKNYCECYEAQIMCSSICKCIGCENY [K34E] yielded an abundance fitness of 0.182 ± 0.14. For KGCNCRRSGCLKNYCECYEAQIMCSSICKCIGCLNY [K34L], the abundance fitness was 0.121 ± 0.083. KGCNCRRSGCLKNYCECYEAQIMCSSICKCIGCANY [K34A] gave an abundance fitness of 0.185 ± 0.085. KGCNCRRSGCLKNYCECYEAQIMCSSICKCIGCNNY [K34N] gave an abundance fitness of 0.06 ± 0.13. In the case of KGCNCRRSGCLKNYCECYEAQIMCSSICKCIGCCNY [K34C], the abundance fitness is reported as 0.064 ± 0.14. With KGCNCRRSGCLKNYCECYEAQIMCSSICKCIGCQNY [K34Q] the abundance fitness was -0.107 ± 0.14. KGCNCRRSGCLKNYCECYEAQIMCSSICKCIGCGNY [K34G] gave an abundance fitness of 0.266 ± 0.068. For KGCNCRRSGCLKNYCECYEAQIMCSSICKCIGCTNY [K34T], the abundance fitness was 0.057 ± 0.1.
